In patent publication US20250242021A1 (published 2025):

Experiments:
[1] = biological target: T1, minor histocompatibility antigen (miHA) HA-1, 'H' epitope peptide on HLA-A*02:01 (human); assay: killing
T1 peptide: VLHDDLLEA

[2] = biological target: T2, minor histocompatibility antigen (miHA) HA-1, 'R' epitope (non-target allelic variant) peptide on HLA-A*02:01 (human); assay: killing
T2 peptide: VLRDDLLEA

[3] = biological target: T3, minor histocompatibility antigen (miHA) HA-1, 'H' epitope peptide on HLA-A*02:06 (human); assay: activation reporter or marker
T3 peptide: VLHDDLLEA

binding result [3]: recognises
B1: anti-HA-1 'H' epitope TCR (TCR, V domains shown)
Valpha: AQSVAQPEDQVNVAEGNPLTVKCTYSVSGNPYLFWYVQYPNRGLQFLLKYITGDNLVKGSYGFEAEFNKSQTSFHLKKPSALVSDSALYFCAVRAPTSGTYKYIFGTGTRLKVLA
Vbeta: DTGVSQDPRHKITKRGQNVTFRCDPISEHNRLYWYRQTLGQGPEFLTYFQNEAQLEKSRLLSDRFSAERPKGSFSTLEIQRTEQGDSAMYLCASSLVSGNEQFFGPGTRLTVL
binding result [1]: recognises
binding result [2]: no recognition
